According to patent US20240150473A1 (SURROZEN OPERATING, published 2024):

What was measured:
LRP5 = LRP5 (human (Huh-7 human liver reporter …, UniProt O75197)); assay: cell-based or functional assay
LRP6 = LRP6 (human (Huh-7 human liver reporter …, UniProt O75581)); assay: cell-based or functional assay
biotinylated LRP6E3E4 [1] = target: T1, biotinylated LRP6E3E4 (UniProt O75581 631-1246, limits assumed, biotinylated (site not stated)); assay: BLI (Octet Red 96), biotinylated LRP6E3E4 on streptavidin sensor, 1:1 fit; SEC fraction C1
T1 construct: domain: E3E4; also called Lrp6E3E4 domain; Lrp6 receptor
T1 sequence (looked up): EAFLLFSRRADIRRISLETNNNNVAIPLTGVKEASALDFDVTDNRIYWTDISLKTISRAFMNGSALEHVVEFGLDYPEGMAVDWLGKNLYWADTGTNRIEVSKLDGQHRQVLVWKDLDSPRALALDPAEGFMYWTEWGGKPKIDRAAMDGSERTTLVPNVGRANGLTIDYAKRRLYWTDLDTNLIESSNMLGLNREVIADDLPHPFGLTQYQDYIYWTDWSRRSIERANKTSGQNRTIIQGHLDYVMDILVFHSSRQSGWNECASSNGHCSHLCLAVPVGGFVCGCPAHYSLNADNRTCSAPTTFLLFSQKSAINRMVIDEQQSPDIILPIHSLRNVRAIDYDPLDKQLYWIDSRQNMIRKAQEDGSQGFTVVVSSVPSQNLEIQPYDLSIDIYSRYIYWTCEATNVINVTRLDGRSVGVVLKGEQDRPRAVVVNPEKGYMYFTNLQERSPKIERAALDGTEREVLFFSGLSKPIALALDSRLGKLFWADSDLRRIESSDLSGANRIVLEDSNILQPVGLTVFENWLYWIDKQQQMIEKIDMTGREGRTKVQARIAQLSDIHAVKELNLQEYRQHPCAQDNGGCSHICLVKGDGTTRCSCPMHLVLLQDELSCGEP
Protocol: (§1) Proteins were purified using His-Complete resin (Roche, USA) following standard procedures. Expression levels and homogeneity of VHH26 and its humanized variants were analyzed by SDS-PAGE and SEC (size-exclusion chromatography). […] Biotinylated LRP6E3E4 diluted to 50 nM in the running buffer (PBS, 0.05% Tween-20, 0.5% BSA, pH 7.2) were captured to the SA biosensor followed by dipping into wells containing the indicated VHH26 proteins at different concentrations in running buffer or into a well with only running buffer as a reference channel. KD for each binder was calculated by Octet System software, based on fitting to a 1:1 binding model. Kinetics values (Kon, Koff, KD) from each experiment was calculated from seven technical replicates of different concentrations of the molecule tested with Octet Data Analysis 9.0 (PALL ForteBio, Fremont, CA).
(§2) Central fractions of each of these peaks were examined by Octect-BLI for their ability interact with Lrp6. Kinetics parameters such as kon, koff, and KD for interaction between VHH26 constructs and Lrp6E3E4 domain are listed in Table 2.

biotinylated LRP6E3E4 [2] = target: T1, biotinylated LRP6E3E4; assay: BLI (Octet Red 96), biotinylated LRP6E3E4 on streptavidin sensor, 1:1 fit; SEC fraction C3
Protocol: as §1, §2

biotinylated LRP6E3E4 [3] = target: T1, biotinylated LRP6E3E4; assay: BLI (Octet Red 96), biotinylated LRP6E3E4 on streptavidin sensor, 1:1 fit; SEC fraction G1
Protocol: as §1, §2

biotinylated LRP6E3E4 [4] = target: T1, biotinylated LRP6E3E4; assay: BLI (Octet Red 96), biotinylated LRP6E3E4 on streptavidin sensor, 1:1 fit; SEC fraction G3
Protocol: as §1, §2

Chain of LRP6 (human (O75581 20-1613 limits assumed): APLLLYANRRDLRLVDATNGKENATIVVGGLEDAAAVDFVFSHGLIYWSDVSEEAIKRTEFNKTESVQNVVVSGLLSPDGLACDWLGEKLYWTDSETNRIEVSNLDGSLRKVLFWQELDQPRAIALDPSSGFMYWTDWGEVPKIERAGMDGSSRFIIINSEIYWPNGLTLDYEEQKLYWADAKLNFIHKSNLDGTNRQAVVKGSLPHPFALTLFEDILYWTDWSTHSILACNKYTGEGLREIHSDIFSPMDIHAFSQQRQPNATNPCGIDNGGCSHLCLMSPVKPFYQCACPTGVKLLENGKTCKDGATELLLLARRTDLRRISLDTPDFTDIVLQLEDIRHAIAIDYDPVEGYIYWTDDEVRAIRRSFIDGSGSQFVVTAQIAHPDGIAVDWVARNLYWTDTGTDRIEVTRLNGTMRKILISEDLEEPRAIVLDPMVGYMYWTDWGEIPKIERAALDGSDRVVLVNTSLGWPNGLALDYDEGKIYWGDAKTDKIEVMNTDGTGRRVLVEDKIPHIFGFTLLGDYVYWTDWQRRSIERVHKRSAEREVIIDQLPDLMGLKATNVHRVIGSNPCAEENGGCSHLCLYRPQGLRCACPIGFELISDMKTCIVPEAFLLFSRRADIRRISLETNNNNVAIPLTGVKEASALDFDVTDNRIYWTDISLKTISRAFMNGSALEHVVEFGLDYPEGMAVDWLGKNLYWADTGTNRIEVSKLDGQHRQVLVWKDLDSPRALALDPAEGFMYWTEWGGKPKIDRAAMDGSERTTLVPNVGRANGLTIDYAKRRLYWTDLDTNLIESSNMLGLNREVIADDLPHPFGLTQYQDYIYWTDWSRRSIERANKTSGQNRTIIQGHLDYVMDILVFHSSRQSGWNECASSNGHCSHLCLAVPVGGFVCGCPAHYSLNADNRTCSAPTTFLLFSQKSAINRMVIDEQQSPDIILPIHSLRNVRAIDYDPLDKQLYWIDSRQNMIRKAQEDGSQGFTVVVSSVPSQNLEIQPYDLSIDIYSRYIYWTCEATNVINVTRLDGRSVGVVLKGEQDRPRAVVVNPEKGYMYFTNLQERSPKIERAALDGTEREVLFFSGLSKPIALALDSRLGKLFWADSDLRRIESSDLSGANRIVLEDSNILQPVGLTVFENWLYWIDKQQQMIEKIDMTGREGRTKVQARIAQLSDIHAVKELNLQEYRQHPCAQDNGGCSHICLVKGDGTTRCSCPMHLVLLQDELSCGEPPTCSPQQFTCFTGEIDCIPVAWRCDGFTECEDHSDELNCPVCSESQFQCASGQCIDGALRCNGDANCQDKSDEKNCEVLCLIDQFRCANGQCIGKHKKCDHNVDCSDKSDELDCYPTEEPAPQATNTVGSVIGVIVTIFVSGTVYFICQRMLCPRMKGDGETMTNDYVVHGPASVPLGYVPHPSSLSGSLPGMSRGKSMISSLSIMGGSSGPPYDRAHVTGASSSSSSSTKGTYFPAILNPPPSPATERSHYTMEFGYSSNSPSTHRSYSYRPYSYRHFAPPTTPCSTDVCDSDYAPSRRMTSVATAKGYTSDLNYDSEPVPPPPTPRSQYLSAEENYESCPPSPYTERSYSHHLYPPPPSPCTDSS
Chain of LRP5 (human (O75197 32-1615 limits assumed): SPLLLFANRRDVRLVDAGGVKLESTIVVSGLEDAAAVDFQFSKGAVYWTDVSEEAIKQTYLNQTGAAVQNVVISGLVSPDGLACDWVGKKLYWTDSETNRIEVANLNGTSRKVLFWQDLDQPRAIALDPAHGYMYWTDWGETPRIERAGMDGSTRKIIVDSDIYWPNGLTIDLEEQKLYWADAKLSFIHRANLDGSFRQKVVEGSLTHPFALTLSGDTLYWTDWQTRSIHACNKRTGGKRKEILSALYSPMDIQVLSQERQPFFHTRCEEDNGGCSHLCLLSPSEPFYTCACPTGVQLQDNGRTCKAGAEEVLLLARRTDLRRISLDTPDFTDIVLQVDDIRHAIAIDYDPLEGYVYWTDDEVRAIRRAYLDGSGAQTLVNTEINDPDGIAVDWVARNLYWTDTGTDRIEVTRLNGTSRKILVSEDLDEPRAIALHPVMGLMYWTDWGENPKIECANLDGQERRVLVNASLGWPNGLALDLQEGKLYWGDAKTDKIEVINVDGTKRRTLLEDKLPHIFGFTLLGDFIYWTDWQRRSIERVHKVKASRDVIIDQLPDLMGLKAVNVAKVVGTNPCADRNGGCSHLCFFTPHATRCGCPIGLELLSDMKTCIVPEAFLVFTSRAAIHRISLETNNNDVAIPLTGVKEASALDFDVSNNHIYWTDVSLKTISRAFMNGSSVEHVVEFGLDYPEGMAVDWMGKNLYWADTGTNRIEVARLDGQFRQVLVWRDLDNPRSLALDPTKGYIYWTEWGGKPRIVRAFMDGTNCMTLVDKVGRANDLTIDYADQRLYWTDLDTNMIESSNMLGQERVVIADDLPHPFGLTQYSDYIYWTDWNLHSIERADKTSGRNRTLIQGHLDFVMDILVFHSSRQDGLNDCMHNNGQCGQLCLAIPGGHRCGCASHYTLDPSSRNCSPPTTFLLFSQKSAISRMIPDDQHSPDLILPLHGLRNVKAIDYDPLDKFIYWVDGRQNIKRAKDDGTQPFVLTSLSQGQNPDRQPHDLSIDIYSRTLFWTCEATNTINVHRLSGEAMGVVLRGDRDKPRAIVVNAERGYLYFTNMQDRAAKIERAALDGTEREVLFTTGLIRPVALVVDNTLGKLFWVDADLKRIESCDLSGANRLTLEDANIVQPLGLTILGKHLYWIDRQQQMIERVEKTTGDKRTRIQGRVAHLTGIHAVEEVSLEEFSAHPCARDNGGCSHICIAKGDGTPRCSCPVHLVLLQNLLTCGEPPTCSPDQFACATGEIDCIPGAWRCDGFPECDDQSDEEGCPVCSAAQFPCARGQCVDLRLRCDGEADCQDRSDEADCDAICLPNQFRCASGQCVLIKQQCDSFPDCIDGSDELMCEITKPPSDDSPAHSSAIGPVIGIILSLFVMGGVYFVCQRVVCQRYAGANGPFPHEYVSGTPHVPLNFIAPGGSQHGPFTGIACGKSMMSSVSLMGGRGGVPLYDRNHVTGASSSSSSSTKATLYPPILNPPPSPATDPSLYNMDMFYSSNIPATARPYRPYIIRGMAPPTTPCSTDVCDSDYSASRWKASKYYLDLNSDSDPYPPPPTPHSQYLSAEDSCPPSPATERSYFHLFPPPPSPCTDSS

B1: VHH03, Parental LALAPG (bispecific antibody)
heavy chain (R2M13 VH-IgG1 LALAPG): EVQLLQSGAEVKKPGSSVKVSCKASGGTFTYRYLHWVRQAPGQGLEWMGGIIPIFGTGNYAQKFQGRVTITADESTSTAYMELSSLRSEDTAVYYCASSMVRVPYYYGMDVWGQGTLVTVSSASTKGPSVFPLAPSSKSTSGGTAALGCLVKDYFPEPVTVSWNSGALTSGVHTFPAVLQSSGLYSLSSVVTVPSSSLGTQTYICNVNHKPSNTKVDKKVEPKSCDKTHTCPPCPAPEAAGGPSVFLFPPKPKDTLMISRTPEVTCVVVDVSHEDPEVKFNWYVDGVEVHNAKTKPREEQYNSTYRVVSVLTVLHQDWLNGKEYKCKVSNKALGAPIEKTISKAKGQPREPQVYTLPPSREEMTKNQVSLTCLVKGFYPSDIAVEWESNGQPENNYKTTPPVLDSDGSFFLYSKLTVDKSRWQQGNVFSCSVMHEALHNHYTQKSLSLSPGK
light chain (VHH03-linker-R2M13 light chain): not shown
In the case of B1, the “EC50, Super TOPFlash (STF) luciferase reporter in Huh-7 STF cells; row LRP5 / VHH03, column Parental LALAPG EC50” value (LRP5) is reported as 0.11 nM.

B2: VHH03, Humanized LALAPG (bispecific antibody)
heavy chain (R2M13 VH-IgG1 LALAPG): EVQLLQSGAEVKKPGSSVKVSCKASGGTFTYRYLHWVRQAPGQGLEWMGGIIPIFGTGNYAQKFQGRVTITADESTSTAYMELSSLRSEDTAVYYCASSMVRVPYYYGMDVWGQGTLVTVSSASTKGPSVFPLAPSSKSTSGGTAALGCLVKDYFPEPVTVSWNSGALTSGVHTFPAVLQSSGLYSLSSVVTVPSSSLGTQTYICNVNHKPSNTKVDKKVEPKSCDKTHTCPPCPAPEAAGGPSVFLFPPKPKDTLMISRTPEVTCVVVDVSHEDPEVKFNWYVDGVEVHNAKTKPREEQYNSTYRVVSVLTVLHQDWLNGKEYKCKVSNKALGAPIEKTISKAKGQPREPQVYTLPPSREEMTKNQVSLTCLVKGFYPSDIAVEWESNGQPENNYKTTPPVLDSDGSFFLYSKLTVDKSRWQQGNVFSCSVMHEALHNHYTQKSLSLSPGK
light chain (humanized VHH03-linker-R2M13 light chain): not shown
For B2, the “EC50, Super TOPFlash (STF) luciferase reporter in Huh-7 STF cells; row LRP5 / VHH03, column Humanized LALAPG EC50” value (LRP5) was 1.8 nM.

B3: VHH26, Parental LALAPG (bispecific antibody)
heavy chain (R2M13 VH-IgG1 LALAPG): EVQLLQSGAEVKKPGSSVKVSCKASGGTFTYRYLHWVRQAPGQGLEWMGGIIPIFGTGNYAQKFQGRVTITADESTSTAYMELSSLRSEDTAVYYCASSMVRVPYYYGMDVWGQGTLVTVSSASTKGPSVFPLAPSSKSTSGGTAALGCLVKDYFPEPVTVSWNSGALTSGVHTFPAVLQSSGLYSLSSVVTVPSSSLGTQTYICNVNHKPSNTKVDKKVEPKSCDKTHTCPPCPAPEAAGGPSVFLFPPKPKDTLMISRTPEVTCVVVDVSHEDPEVKFNWYVDGVEVHNAKTKPREEQYNSTYRVVSVLTVLHQDWLNGKEYKCKVSNKALGAPIEKTISKAKGQPREPQVYTLPPSREEMTKNQVSLTCLVKGFYPSDIAVEWESNGQPENNYKTTPPVLDSDGSFFLYSKLTVDKSRWQQGNVFSCSVMHEALHNHYTQKSLSLSPGK
light chain (VHH26-linker-R2M13 light chain): not shown
For B3, the “EC50, Super TOPFlash (STF) luciferase reporter in Huh-7 STF cells; row LRP6 / VHH26, column Parental LALAPG EC50” value (LRP6) was 1.1 nM.

B4: R2M13-26 humanized LALAPG (R2M13-h26) (bispecific antibody)
heavy: EVQLLQSGAEVKKPGSSVKVSCKASGGTFTYRYLHWVRQAPGQGLEWMGGIIPIFGTGNYAQKFQGRVTITADESTSTAYMELSSLRSEDTAVYYCASSMVRVPYYYGMDVWGQGTLVTVSSASTKGPSVFPLAPSSKSTSGGTAALGCLVKDYFPEPVTVSWNSGALTSGVHTFPAVLQSSGLYSLSSVVTVPSSSLGTQTYICNVNHKPSNTKVDKKVEPKSCDKTHTCPPCPAPEAAGGPSVFLFPPKPKDTLMISRTPEVTCVVVDVSHEDPEVKFNWYVDGVEVHNAKTKPREEQYNSTYRVVSVLTVLHQDWLNGKEYKCKVSNKALGAPIEKTISKAKGQPREPQVYTLPPSREEMTKNQVSLTCLVKGFYPSDIAVEWESNGQPENNYKTTPPVLDSDGSFFLYSKLTVDKSRWQQGNVFSCSVMHEALHNHYTQKSLSLSPGK
light: not shown
In the case of B4, the “EC50, Super TOPFlash (STF) luciferase reporter in Huh-7 STF cells; row LRP6 / VHH26, column Humanized LALAPG EC50” value (LRP6) is reported as 0.63 nM.

B5: VHH36, Parental LALAPG (bispecific antibody, human IgG1, kappa, L234A L235A)
heavy chain (R2M13 VH-IgG1 LALAPG): EVQLLQSGAEVKKPGSSVKVSCKASGGTFTYRYLHWVRQAPGQGLEWMGGIIPIFGTGNYAQKFQGRVTITADESTSTAYMELSSLRSEDTAVYYCASSMVRVPYYYGMDVWGQGTLVTVSSASTKGPSVFPLAPSSKSTSGGTAALGCLVKDYFPEPVTVSWNSGALTSGVHTFPAVLQSSGLYSLSSVVTVPSSSLGTQTYICNVNHKPSNTKVDKKVEPKSCDKTHTCPPCPAPEAAGGPSVFLFPPKPKDTLMISRTPEVTCVVVDVSHEDPEVKFNWYVDGVEVHNAKTKPREEQYNSTYRVVSVLTVLHQDWLNGKEYKCKVSNKALGAPIEKTISKAKGQPREPQVYTLPPSREEMTKNQVSLTCLVKGFYPSDIAVEWESNGQPENNYKTTPPVLDSDGSFFLYSKLTVDKSRWQQGNVFSCSVMHEALHNHYTQKSLSLSPGK
light chain (VHH36-linker-R2M13 light chain): not shown
In the case of B5, the “EC50, Super TOPFlash (STF) luciferase reporter in Huh-7 STF cells; row LRP5&6 / VHH36, column Parental LALAPG EC50 (nM); one value given for both LRP5 and LRP6” value (LRP6) is reported as 0.06 nM and the “EC50, Super TOPFlash (STF) luciferase reporter in Huh-7 STF cells; row LRP5&6 / VHH36, column Parental LALAPG EC50 (nM); one value given for both LRP5 and LRP6” value (LRP5) is reported as 0.06 nM.

B6: VHH36, Humanized LALAPG (bispecific antibody, human IgG1, kappa, L234A L235A)
heavy chain (R2M13 VH-IgG1 LALAPG): EVQLLQSGAEVKKPGSSVKVSCKASGGTFTYRYLHWVRQAPGQGLEWMGGIIPIFGTGNYAQKFQGRVTITADESTSTAYMELSSLRSEDTAVYYCASSMVRVPYYYGMDVWGQGTLVTVSSASTKGPSVFPLAPSSKSTSGGTAALGCLVKDYFPEPVTVSWNSGALTSGVHTFPAVLQSSGLYSLSSVVTVPSSSLGTQTYICNVNHKPSNTKVDKKVEPKSCDKTHTCPPCPAPEAAGGPSVFLFPPKPKDTLMISRTPEVTCVVVDVSHEDPEVKFNWYVDGVEVHNAKTKPREEQYNSTYRVVSVLTVLHQDWLNGKEYKCKVSNKALGAPIEKTISKAKGQPREPQVYTLPPSREEMTKNQVSLTCLVKGFYPSDIAVEWESNGQPENNYKTTPPVLDSDGSFFLYSKLTVDKSRWQQGNVFSCSVMHEALHNHYTQKSLSLSPGK
light chain (humanized VHH36-linker-R2M13 light chain): not shown
B6 was tested, and the “EC50, Super TOPFlash (STF) luciferase reporter in Huh-7 STF cells; row LRP5&6 / VHH36, column Humanized LALAPG EC50 (nM); one value given for both LRP5 and LRP6” value (LRP6) was 1.2 nM and the “EC50, Super TOPFlash (STF) luciferase reporter in Huh-7 STF cells; row LRP5&6 / VHH36, column Humanized LALAPG EC50 (nM); one value given for both LRP5 and LRP6” value (LRP5) was 1.2 nM.

B7: VHH26-H3 (VHH)
VHH: EVQLVESGGGLVQPGGSLRLSCAGSGRIFAIYDIAWYRQAPGKGREWVAMIRPVVTEIDYADSVKGRFTISRDNSKNTVYLQMNSLRAEDTAVYYCNAKRPWGSRDEYWGQGTTVTVSS
notes: Expressed in Expi293 cells with a C-terminal hexa-histidine tag; two SEC peaks were tested separately
Binder B7 has a Kd (biotinylated LRP6E3E4 [1]) of 3200 nM and a Kd (biotinylated LRP6E3E4 [2]) of 422 nM.

B8: VHH26-H1 (VHH)
VHH: EVQLLESGGGLVQPGGSLRLSCAASGRIFAIYDIAWVRQAPGKGLEWVSMIRPVVTEIDYADSVKGRFTISRDNSKNTLYLQMNSLRAEDTAVYYCAKKRPWGSRDEYWGQGTTVTVSS
notes: as for B7
With B8 the Kd (biotinylated LRP6E3E4 [2]) was 281 nM.

B9: VHH26-H2 (VHH)
VHH: EVQLVESGGGLVQPGGSLRLSCAGSGRIFAIYDIAWYRQAPGKGLEWVAMIRPVVTEIDYADSVKGRFTISRDNSKNTVYLQMNSLRAEDTAVYYCNAKRPWGSRDEYWGQGTTVTVSS
notes: as for B7
Binder B9 has a Kd (biotinylated LRP6E3E4 [3]) of 441 nM and a Kd (biotinylated LRP6E3E4 [4]) of 280 nM.

B10: VHH26-H4 (VHH)
VHH: EVQLVESGGGLVQPGGSLRLSCAGSGRIFAIYDIAWYRQAPGKGRELVAMIRPVVTEIDYADSVKGRFTISRDNSKNTVYLQMNSLRAEDTAVYYCNAKRPWGSRDEYWGQGTTVTVSS
notes: as for B7
Work on B10 yielded a Kd (biotinylated LRP6E3E4 [3]) of 662 nM and a Kd (biotinylated LRP6E3E4 [4]) of 192 nM.

B11: VHH26-H5 (VHH)
VHH: EVQLVESGGGLVQPGGSLRLSCAGSGRIFAIYDIAWYRQAPGKGREWVAMIRPVVTEIDYADSVKGRFTISRDNSKKTVYLQMNSLRAEDTAVYYCNAKRPWGSRDEYWGQGTTVTVSS
notes: as for B7
With B11 the Kd (biotinylated LRP6E3E4 [1]) was 41 nM and the Kd (biotinylated LRP6E3E4 [2]) was 109 nM.

B12: VHH26-H6 (VHH)
VHH: EVQLVESGGGLVQPGGSLRLSCAGSGRIFAIYDIAWYRQAPGKGRELVAMIRPVVTEIDYADSVKGRFTISRDNSKKTVYLQMNSLRAEDTAVYYCNAKRPWGSRDEYWGQGTTVTVSS
notes: as for B7
Binder B12 has a Kd (biotinylated LRP6E3E4 [3]) of 687 nM and a Kd (biotinylated LRP6E3E4 [4]) of 486 nM.
